Measured values from US20180169199A1.

Assays:
[1] = target: HLA-A*02:06 molecule (product of HLA-A*02:06 gene) (human); test: flow cytometry, RA2.6 cells, peptide dilution series, BB7.2 staining
[2] = target: HLA-A*02:01 molecule (product of HLA-A*02:01 gene) (human); test: flow cytometry, T2 cells + β2m, peptide dilution series, BB7.2 staining
[3] = target: HLA-A*24:02 molecule (product of HLA-A*24:02 gene) (human); test: flow cytometry, acid-stripped C1R-A24 cells + β2m, peptide dilution series, 17A12 staining

| Binder | Binding Experiment Data (log Kd) [1] [log Kd] | Binding Experiment Data (log Kd) [2] [log Kd] | Binding Experiment Data (log Kd) [3] [log Kd] |
| --- | --- | --- | --- |
| NQPGVLIQV (modifications not checked) [peptide … (SEQ ID NO: 14)] | -6.42 | -5.91 | – |
| MVLTKMKEI (modifications not checked) [peptide … (SEQ ID NO: 6)] | -5.53 | -4.59 | -5.82 |
| LLLDVAPLS (modifications not checked) [peptide … (SEQ ID NO: 8)] | -6.17 | -6.06 | – |
| AMTKDNNLL (modifications not checked) [peptide … (SEQ ID NO: 9)] | -4.28 | -5.56 | -5.49 |
| SVTNAVITV (modifications not checked) [peptide … (SEQ ID NO: 15)] | -5.59 | -4.76 | -4.37 |
| FYPEEISSM (modifications not checked) [peptide … (SEQ ID NO: 3)] | – | – | -7.66 |
| YGAAVQAAI (modifications not checked) [peptide … (SEQ ID NO: 7)] | -5.37 | -4.9 | -5.5 |
| ITRARFEEL (modifications not checked) [peptide … (SEQ ID NO: 10)] | -5.58 | -4.33 | -5.21 |
| AQIHDLVLV (modifications not checked) [peptide … (SEQ ID NO: 12)] | -6.45 | -6.15 | – |
| YAFNMKSAV (modifications not checked) [peptide … (SEQ ID NO: 13)] | -5.02 | -5.09 | – |
| VLVGGSTRI (modifications not checked) [peptide … (SEQ ID NO: 5)] | -5.07 | -4.86 | -6.17 |
| NLLGRFELS (modifications not checked) [peptide … (SEQ ID NO: 11)] | -5.18 | -4.56 | – |
| KLLQDFFNG (modifications not checked) [peptide … (SEQ ID NO: 4)] | -5.27 | -4.96 | – |
| TFDVSILTI (modifications not checked) [peptide … (SEQ ID NO: 2)] | – | – | -6.24 |
